# According to IntAct's records for PubMed 23664119:
# B1: Protein bicaudal D homolog 2 (Homo sapiens), Q8TD16 (parent)
# chain: MSAPSEEEEYARLVMEAQPEWLRAEVKRLSHELAETTREKIQAAEYGLAVLEEKHQLKLQFEELEVDYEAIRSEMEQLKEAFGQAHTNHKKVAADGESREESLIQESASKEQYYVRKVLELQTELKQLRNVLTNTQSENERLASVAQELKEINQNVEIQRGRLRDDIKEYKFREARLLQDYSELEEENISLQKQVSVLRQNQVEFEGLKHEIKRLEEETEYLNSQLEDAIRLKEISERQLEEALETLKTEREQKNSLRKELSHYMSINDSFYTSHLHVSLDGLKFSDDAAEPNNDAEALVNGFEHGGLAKLPLDNKTSTPKKEGLAPPSPSLVSDLLSELNISEIQKLKQQLMQMEREKAGLLATLQDTQKQLEHTRGSLSEQQEKVTRLTENLSALRRLQASKERQTALDNEKDRDSHEDGDYYEVDINGPEILACKYHVAVAEAGELREQLKALRSTHEAREAQHAEEKGRYEAEGQALTEKVSLLEKASRQDRELLARLEKELKKVSDVAGETQGSLSVAQDELVTFSEELANLYHHVCMCNNETPNRVMLDYYREGQGGAGRTSPGGRTSPEARGRRSPILLPKGLLAPEAGRADGGTGDSSPSPGSSLPSPLSDPRREPMNIYNLIAIIRDQIKHLQAAVDRTTELSRQRIASQELGPAVDKDKEALMEEILKLKSLLSTKREQITTLRTVLKANKQTAEVALANLKSKYENEKAMVTETMMKLRNELKALKEDAATFSSLRAMFATRCDEYITQLDEMQRQLAAAEDEKKTLNSLLRMAIQQKLALTQRLELLELDHEQTRRGRAKAAPKTKPATPSL
# Tests used:
# [1] = variants of: B1; settings: with rab6a_human RAB6A
# [2] = variants of: B1; settings: with dc1i1_human DYNC1I1, O14576
# dc1i1_human DYNC1I1, O14576, sequence (O14576 whole entry): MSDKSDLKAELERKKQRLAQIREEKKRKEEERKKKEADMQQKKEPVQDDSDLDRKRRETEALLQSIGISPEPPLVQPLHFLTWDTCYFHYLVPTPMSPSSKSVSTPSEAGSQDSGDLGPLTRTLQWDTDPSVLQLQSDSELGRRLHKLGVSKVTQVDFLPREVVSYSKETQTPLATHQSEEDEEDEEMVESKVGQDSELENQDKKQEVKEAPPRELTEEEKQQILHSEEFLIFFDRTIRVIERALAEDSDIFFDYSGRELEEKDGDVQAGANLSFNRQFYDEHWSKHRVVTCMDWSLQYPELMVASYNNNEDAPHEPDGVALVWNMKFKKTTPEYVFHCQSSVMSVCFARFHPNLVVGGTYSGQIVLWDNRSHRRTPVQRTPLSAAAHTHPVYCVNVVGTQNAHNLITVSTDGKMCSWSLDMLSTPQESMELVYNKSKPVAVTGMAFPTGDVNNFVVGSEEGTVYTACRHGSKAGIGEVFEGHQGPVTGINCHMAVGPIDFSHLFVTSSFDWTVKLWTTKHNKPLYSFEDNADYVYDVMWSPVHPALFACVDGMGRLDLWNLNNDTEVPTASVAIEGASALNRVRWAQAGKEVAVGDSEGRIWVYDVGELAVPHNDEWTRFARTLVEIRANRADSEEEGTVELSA
# [3] = variants of: B1; settings: with rab6a_human RAB6A; remark: listed apart in the source
Variant,effect of a mutation on the interaction [1],effect of a mutation on the interaction [2],effect of a mutation on the interaction [3]
E774G,decreasing interaction strength,,
S107L,with no effect,increasing interaction strength,decreasing interaction strength
